Assay results taken from the supplement of paper PMC9112550, “Optimization of the antimicrobial peptide Bac7 by deep mutational scanning” (BMC Biology, 2022).

What follows are sequences tested on Escherichia coli TOP10 (assay: shrunken log2 fold change of peptide-encoding DNA abundance (4.5 h post-induction vs induction); higher = less antimicrobial activity (less host growth inhibition)). Conditions: time post-induction: 4.5 h; library: site-saturation at positions 5, 18, 19, 20.
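Also: peptides expressed intracellularly from a pBAD plasmid library in pooled LB shake-flask culture, induced with 0.3% L-arabinose, DNA abundance read by NGS, three biological replicates, DESeq2 with apeglm shrinkage.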

Sequence	shrunken log2 fold change
RRIRARPPRLPRPRPRPKVVPRP	-0.0348
RRIRARPPRLPRPRPRPKWAPRP	0.688
RRIRARPPRLPRPRPRPKYFPRP	0.0918
RRIRARPPRLPRPRPRPKYIPRP	-0.536
RRIRARPPRLPRPRPRPKYVPRP	-0.145
RRIRARPPRLPRPRPRPLADPRP	0.42
RRIRARPPRLPRPRPRPLAKPRP	0.835
RRIRARPPRLPRPRPRPLCCPRP	0.305
RRIRARPPRLPRPRPRPLCSPRP	0.197
RRIRARPPRLPRPRPRPLDVPRP	-0.07
RRIRARPPRLPRPRPRPLHQPRP	0.147
RRIRARPPRLPRPRPRPLHYPRP	-0.174
RRIRARPPRLPRPRPRPLKHPRP	-0.0681
RRIRARPPRLPRPRPRPLPPPRP	0.805
RRIRARPPRLPRPRPRPLQTPRP	0.0966
RRIRARPPRLPRPRPRPLRFPRP	0.396
RRIRARPPRLPRPRPRPLRIPRP	2.9
RRIRARPPRLPRPRPRPLTLPRP	0.0472
RRIRARPPRLPRPRPRPLVLPRP	0.157
RRIRARPPRLPRPRPRPLVSPRP	0.653
RRIRARPPRLPRPRPRPLWAPRP	0.589
RRIRARPPRLPRPRPRPLWEPRP	0.745
RRIRARPPRLPRPRPRPLWQPRP	0.136
RRIRARPPRLPRPRPRPLYHPRP	0.149
RRIRARPPRLPRPRPRPLYSPRP	-0.122

Sequence	shrunken log2 fold change
RRIRARPPRLPRPRPRPMCNPRP	0.186
RRIRARPPRLPRPRPRPMCSPRP	0.334
RRIRARPPRLPRPRPRPMDKPRP	0.0591
RRIRARPPRLPRPRPRPMEAPRP	-0.047
RRIRARPPRLPRPRPRPMHEPRP	0.671
RRIRARPPRLPRPRPRPMKFPRP	0.0174
RRIRARPPRLPRPRPRPMKTPRP	0.0191
RRIRARPPRLPRPRPRPMLQPRP	0.454
RRIRARPPRLPRPRPRPMMFPRP	0.166
RRIRARPPRLPRPRPRPMMHPRP	0.184
RRIRARPPRLPRPRPRPMNQPRP	-0.135
RRIRARPPRLPRPRPRPMPEPRP	0.18
RRIRARPPRLPRPRPRPMPVPRP	0.0463
RRIRARPPRLPRPRPRPMQMPRP	0.626
RRIRARPPRLPRPRPRPMRCPRP	0.162
RRIRARPPRLPRPRPRPMRMPRP	0.784
RRIRARPPRLPRPRPRPMSHPRP	0.148
RRIRARPPRLPRPRPRPMVLPRP	-0.118
RRIRARPPRLPRPRPRPMWTPRP	0.0207
RRIRARPPRLPRPRPRPNAQPRP	0.158
RRIRARPPRLPRPRPRPNAYPRP	0.0893
RRIRARPPRLPRPRPRPNCSPRP	0.179
RRIRARPPRLPRPRPRPNDCPRP	0.0748
RRIRARPPRLPRPRPRPNDDPRP	0.54
RRIRARPPRLPRPRPRPNDHPRP	-0.0473

Sequence	shrunken log2 fold change
RRIRARPPRLPRPRPRPNEGPRP	-0.175
RRIRARPPRLPRPRPRPNFGPRP	0.324
RRIRARPPRLPRPRPRPNFNPRP	-0.0686
RRIRARPPRLPRPRPRPNGMPRP	-0.0336
RRIRARPPRLPRPRPRPNHEPRP	0.021
RRIRARPPRLPRPRPRPNKMPRP	-0.177
RRIRARPPRLPRPRPRPNLDPRP	-0.152
RRIRARPPRLPRPRPRPNLEPRP	0.0621
RRIRARPPRLPRPRPRPNLTPRP	0.287
RRIRARPPRLPRPRPRPNMWPRP	0.188
RRIRARPPRLPRPRPRPNNSPRP	-0.483
RRIRARPPRLPRPRPRPNPWPRP	0.222
RRIRARPPRLPRPRPRPNQHPRP	-0.124
RRIRARPPRLPRPRPRPNQLPRP	-0.0527
RRIRARPPRLPRPRPRPNQRPRP	0.532
RRIRARPPRLPRPRPRPNRNPRP	-0.266
RRIRARPPRLPRPRPRPNSGPRP	-0.0211
RRIRARPPRLPRPRPRPNTHPRP	-0.309
RRIRARPPRLPRPRPRPNVAPRP	0.477
RRIRARPPRLPRPRPRPNVHPRP	0.0927
RRIRARPPRLPRPRPRPNYNPRP	-0.556
RRIRARPPRLPRPRPRPPCHPRP	0.219
RRIRARPPRLPRPRPRPPDNPRP	0.576
RRIRARPPRLPRPRPRPPDSPRP	0.212
RRIRARPPRLPRPRPRPPEQPRP	0.941

Sequence	shrunken log2 fold change
RRIRARPPRLPRPRPRPPEWPRP	0.734
RRIRARPPRLPRPRPRPPGMPRP	0.471
RRIRARPPRLPRPRPRPPIDPRP	0.647
RRIRARPPRLPRPRPRPPLHPRP	0.467
RRIRARPPRLPRPRPRPPLKPRP	0.33
RRIRARPPRLPRPRPRPPLPPRP	0.762
RRIRARPPRLPRPRPRPPMWPRP	0.805
RRIRARPPRLPRPRPRPPNPPRP	0.662
RRIRARPPRLPRPRPRPPPVPRP	1.04
RRIRARPPRLPRPRPRPPPYPRP	0.698
RRIRARPPRLPRPRPRPPQAPRP	1.03
RRIRARPPRLPRPRPRPPREPRP	1.01
RRIRARPPRLPRPRPRPPRWPRP	0.794
RRIRARPPRLPRPRPRPPTAPRP	0.744
RRIRARPPRLPRPRPRPPTCPRP	0.559
RRIRARPPRLPRPRPRPPVFPRP	0.416
RRIRARPPRLPRPRPRPPYFPRP	0.314
RRIRARPPRLPRPRPRPPYGPRP	0.0793
RRIRARPPRLPRPRPRPPYKPRP	0.0849
RRIRARPPRLPRPRPRPPYVPRP	-0.131
RRIRARPPRLPRPRPRPQAAPRP	1.14
RRIRARPPRLPRPRPRPQDVPRP	-0.136
RRIRARPPRLPRPRPRPQFLPRP	-0.265
RRIRARPPRLPRPRPRPQGIPRP	0.0477
RRIRARPPRLPRPRPRPQGLPRP	0.208

Sequence	shrunken log2 fold change
RRIRARPPRLPRPRPRPQIEPRP	0.234
RRIRARPPRLPRPRPRPQIGPRP	3.24
RRIRARPPRLPRPRPRPQKVPRP	0.0196
RRIRARPPRLPRPRPRPQLSPRP	0.329
RRIRARPPRLPRPRPRPQMCPRP	0.00812
RRIRARPPRLPRPRPRPQMHPRP	1.05
RRIRARPPRLPRPRPRPQNEPRP	-0.12
RRIRARPPRLPRPRPRPQNFPRP	-0.0953
RRIRARPPRLPRPRPRPQRFPRP	0.0296
RRIRARPPRLPRPRPRPQRIPRP	0.177
RRIRARPPRLPRPRPRPQRRPRP	0.366
RRIRARPPRLPRPRPRPQSAPRP	0.153
RRIRARPPRLPRPRPRPQTCPRP	0.246
RRIRARPPRLPRPRPRPQTKPRP	0.135
RRIRARPPRLPRPRPRPQVFPRP	0.278
RRIRARPPRLPRPRPRPQVKPRP	0.136
RRIRARPPRLPRPRPRPQVMPRP	-0.00224
RRIRARPPRLPRPRPRPQYKPRP	-0.303
RRIRARPPRLPRPRPRPQYLPRP	-0.204
RRIRARPPRLPRPRPRPQYYPRP	-0.452
RRIRARPPRLPRPRPRPRARPRP	0.911
RRIRARPPRLPRPRPRPRASPRP	0.797
RRIRARPPRLPRPRPRPRCAPRP	0.716
RRIRARPPRLPRPRPRPRCEPRP	0.416
RRIRARPPRLPRPRPRPRDGPRP	1.3

Sequence	shrunken log2 fold change
RRIRARPPRLPRPRPRPREYPRP	0.5
RRIRARPPRLPRPRPRPRFWPRP	0.691
RRIRARPPRLPRPRPRPRGEPRP	0.613
RRIRARPPRLPRPRPRPRGTPRP	0.448
RRIRARPPRLPRPRPRPRGWPRP	1.07
RRIRARPPRLPRPRPRPRHAPRP	0.612
RRIRARPPRLPRPRPRPRIRPRP	0.322
RRIRARPPRLPRPRPRPRKFPRP	0.421
RRIRARPPRLPRPRPRPRLLPRP	0.526
RRIRARPPRLPRPRPRPRLMPRP	0.216
RRIRARPPRLPRPRPRPRMQPRP	0.637
RRIRARPPRLPRPRPRPRMYPRP	0.0922
RRIRARPPRLPRPRPRPRRQPRP	0.453
RRIRARPPRLPRPRPRPRRRPRP	0.888
RRIRARPPRLPRPRPRPRSSPRP	0.188
RRIRARPPRLPRPRPRPRTTPRP	0.755
RRIRARPPRLPRPRPRPRVAPRP	0.46
RRIRARPPRLPRPRPRPRVLPRP	0.189
RRIRARPPRLPRPRPRPRWSPRP	0.53
RRIRARPPRLPRPRPRPRYKPRP	0.0679
RRIRARPPRLPRPRPRPRYMPRP	-0.365
RRIRARPPRLPRPRPRPSAPPRP	0.397
RRIRARPPRLPRPRPRPSCIPRP	-0.131
RRIRARPPRLPRPRPRPSDAPRP	0.396
RRIRARPPRLPRPRPRPSEGPRP	-0.00533
